T1: human FcγRIIaH extracellular domain with C-terminal His-tag (human, UniProt P12318 34-217)
T1 construct: also called human FcgRIIaH; FcγRIIa type H; not shown: His-tag added to the C-terminus
T1 sequence: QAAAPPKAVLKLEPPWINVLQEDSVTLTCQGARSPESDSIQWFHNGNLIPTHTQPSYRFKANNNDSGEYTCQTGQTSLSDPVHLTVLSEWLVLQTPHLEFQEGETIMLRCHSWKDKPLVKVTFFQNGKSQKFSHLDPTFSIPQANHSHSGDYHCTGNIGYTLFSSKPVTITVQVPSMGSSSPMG

T2: cynomolgus monkey FcγRIIa3 extracellular domain with C-terminal His-tag (cynomolgus monkey)
T2 construct: also called cyno FcgRIIa3; cynoFcγRIIa3; not shown: His-tag added to the C-terminus
T2 chain: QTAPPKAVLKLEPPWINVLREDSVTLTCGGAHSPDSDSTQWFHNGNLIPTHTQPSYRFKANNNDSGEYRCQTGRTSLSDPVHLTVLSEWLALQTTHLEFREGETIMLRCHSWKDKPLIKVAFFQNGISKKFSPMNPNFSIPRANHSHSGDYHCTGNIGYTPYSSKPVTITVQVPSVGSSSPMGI

T3: cynomolgus monkey FcγRIIa3 extracellular domain with C-terminal His-tag (cynomolgus monkey)
T3 construct: also called cyno FcgRIIa3; cynoFcγRIIa3; not shown: His-tag added to C-terminus
T3 chain: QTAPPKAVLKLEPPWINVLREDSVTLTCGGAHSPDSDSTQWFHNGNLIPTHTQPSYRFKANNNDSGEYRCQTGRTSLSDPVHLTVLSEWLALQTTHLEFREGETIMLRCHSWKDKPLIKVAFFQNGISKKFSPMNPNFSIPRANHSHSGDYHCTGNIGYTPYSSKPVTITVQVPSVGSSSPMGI

T4: human FcγRIIb extracellular domain with C-terminal His-tag (human, UniProt P31994 43-217)
T4 construct: also called human FcgRIIb; not shown: His-tag added to C-terminus
T4 sequence: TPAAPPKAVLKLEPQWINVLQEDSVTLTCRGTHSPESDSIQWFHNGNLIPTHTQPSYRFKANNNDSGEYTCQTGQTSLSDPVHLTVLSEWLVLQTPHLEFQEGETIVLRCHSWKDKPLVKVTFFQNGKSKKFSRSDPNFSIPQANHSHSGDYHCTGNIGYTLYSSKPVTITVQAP

T5: cynomolgus monkey FcγRIIb extracellular domain with C-terminal His-tag (cynomolgus monkey)
T5 construct: also called cyno FcgRIIb; cynoFcγRIIb; not shown: His-tag added to C-terminus
T5 chain: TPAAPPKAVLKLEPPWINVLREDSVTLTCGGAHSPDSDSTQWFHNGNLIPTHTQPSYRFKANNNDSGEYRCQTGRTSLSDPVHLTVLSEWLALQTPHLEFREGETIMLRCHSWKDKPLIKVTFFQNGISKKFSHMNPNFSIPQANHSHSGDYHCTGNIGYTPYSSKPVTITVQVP


Columns and labels:
[1] = target: T6, cynomolgus monkey FcγRIIIaS extracellular domain with C-terminal His-tag (cynomolgus monkey, UniProt A3RFZ7 21-206 (rhesus entry)); assay: SPR (BIACORE), antibody captured, FcgR analyte
T6 construct: also called cyno FcgRIIIaS; cynoFcγRIIIaS; not shown: His-tag added to the C-terminus
Target sequence in this assay (A3RFZ7 21-206): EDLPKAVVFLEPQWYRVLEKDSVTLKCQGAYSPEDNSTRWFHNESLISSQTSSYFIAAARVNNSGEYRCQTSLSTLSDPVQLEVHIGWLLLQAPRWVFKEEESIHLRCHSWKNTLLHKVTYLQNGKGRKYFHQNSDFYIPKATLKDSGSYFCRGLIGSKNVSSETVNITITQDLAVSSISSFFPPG

[2] = target: T1, human FcγRIIaH extracellular domain …; assay: SPR (BIACORE), antibody captured, FcgR analyte
[3] = target: T2, cynomolgus monkey FcγRIIa3 …; assay: SPR (BIACORE), antibody captured, FcgR analyte
[4] = target: T6, cynomolgus monkey FcγRIIIaS …; assay: SPR (BIACORE); KD of SG1 / KD of variant
Description: The kinetic analysis of interactions between these antibodies and FcγR was carried out using BIACORE® T200 or BIACORE® 4000 (GE Healthcare). HBS-EP+ (GE Healthcare) was used as the running buffer, and the measurement temperature was set to 25° C. […] After the measurement, the antibody captured on the chip was washed off by allowing reaction with 10 mM glycine-HCl, pH1.5 and 25 mM NaOH so that the chip was regenerated and used repeatedly. The sensorgrams obtained as measurement results were analyzed by the 1:1 Langmuir binding model using the BIACORE® Evaluation Software to calculate the binding rate constant ka (L/mol/s) and dissociation rate constant kd (1/s), and the dissociation constant KD (mol/L) was calculated from these values. […] Regarding such interactions, KD values were calculated using the following 1:1 binding model described in BIACORE® T100 Software Handbook BR1006-48 Edition AE.
T6 sequence (A3RFZ7 21-206): as above

[5] = target: T3, cynomolgus monkey FcγRIIa3 …; assay: SPR Biacore, antibody captured, FcgR analyte
[6] = target: T7, cynomolgus monkey FcγRIIIaS extracellular domain with C-terminal His-tag (cynomolgus monkey, UniProt A3RFZ7 21-206 (rhesus entry)); assay: SPR Biacore, antibody captured, FcgR analyte
T7 construct: also called cyno FcgRIIIaS; cynoFcγRIIIaS; not shown: His-tag added to C-terminus
Target sequence in this assay (A3RFZ7 21-206): as above

[7] = target: T4, human FcγRIIb extracellular domain with …; assay: SPR Biacore, antibody captured, FcgR analyte
[8] = target: T5, cynomolgus monkey FcγRIIb extracellular …; assay: SPR Biacore, antibody captured, FcgR analyte

Binder | Kd [1] | Kd [2] | Kd [3] | KD fold (SG1 = 1) [4] | KD fold (SG1 = 1) [5] | KD fold (SG1 = 1) [6] | KD fold (SG1 = 1) [7] | KD fold (SG1 = 1) [8]
M103205H795-MY204/M103202L889-SK1 (antibody, human IgG1, kappa, name in EU numbering, substitutions in EU numbering, introduced into M103205H795-SG1) heavy: QVTLKESGPVLVKPTETLTLTCTVSGIDLSHDDISWVRQAPGKGLEWVGIISYAGSTYYASWAKGRLTISKDTSKNQVVLTMTNMDPVDTATYYCARGVPAYSHGGDLWGQGTLVTVSSASTKGPSVFPLAPSSKSTSGGTAALGCLVKDYFPEPVTVSWNSGALTSGVHTFPAVLQSSGLYSLSSVVTVPSSSLGTQTYICNVNHKPSNTKVDKKVEPKSCDKTHTCPPCPAPELLNGPVVFLFPPKPKDTLMISRTPEVTCVVVDVSEEDPEVKFNWYVDGVEVHNAKTKPREELYNSTYRVVSVLTVLHQDWLNGKEYKCKVSNKALPKPIEKTISKAKGQPREPQVYTLPPSREEMTKNQVSLTCLVKGFYPSDIAVEWESNGQPENNYKTTPPVLDSDGSFFLYSKLTVDKSRWQQGNVFSCSVMHEALHNHYTQKSLSLSP light: DIVMTQSPATLSLSPGERATLSCTSSQSVYHANWLSWFQQKPGQPPKLLIYWASTLAYGVPSRFSGSGSGTDFTLTISSLQPEDAATYYCAGGYGGGRYAFGQGTKVEIKRTVAAPSVFIFPPSDEQLKSGTASVVCLLNNFYPREAKVQWKVDNALQSGNSQESVTEQDSKDSTYSLSSTLTLSKADYEKHKVYACEVTHQGLSSPVTKSFNRGEC | – | – | – | – | 3.3 fold | 0.1 fold | – | 2.2 fold
M103205H795-MY202/M103202L889-SK1 (antibody, human IgG1, kappa, name in EU numbering, Fc variant of MS1032LO06-SG1; positions in EU numbering) heavy: QVTLKESGPVLVKPTETLTLTCTVSGIDLSHDDISWVRQAPGKGLEWVGIISYAGSTYYASWAKGRLTISKDTSKNQVVLTMTNMDPVDTATYYCARGVPAYSHGGDLWGQGTLVTVSSASTKGPSVFPLAPSSKSTSGGTAALGCLVKDYFPEPVTVSWNSGALTSGVHTFPAVLQSSGLYSLSSVVTVPSSSLGTQTYICNVNHKPSNTKVDKKVEPKSCDKTHTCPPCPAPELLNGPVVFLFPPKPKDTLMISRTPEVTCVVVDVSDEDPEVKFNWYVDGVEVHNAKTKPREEQYNSTYRVVSVLTVLHQDWLNGKEYKCKVSNKALPKPIEKTISKAKGQPREPQVYTLPPSREEMTKNQVSLTCLVKGFYPSDIAVEWESNGQPENNYKTTPPVLDSDGSFFLYSKLTVDKSRWQQGNVFSCSVMHEALHNHYTQKSLSLSP light: DIVMTQSPATLSLSPGERATLSCTSSQSVYHANWLSWFQQKPGQPPKLLIYWASTLAYGVPSRFSGSGSGTDFTLTISSLQPEDAATYYCAGGYGGGRYAFGQGTKVEIKRTVAAPSVFIFPPSDEQLKSGTASVVCLLNNFYPREAKVQWKVDNALQSGNSQESVTEQDSKDSTYSLSSTLTLSKADYEKHKVYACEVTHQGLSSPVTKSFNRGEC | 4 µM | 1200 nM | 2200 nM | – | – | – | – | –

Results, then the binder that gave them:

Kd [1] | Kd [2] | Kd [3] | KD fold (SG1 = 1) [4] | KD fold (SG1 = 1) [5] | KD fold (SG1 = 1) [6] | KD fold (SG1 = 1) [7] | KD fold (SG1 = 1) [8] | Binder
2.1 µM | 160 nM | 1400 nM | 0.17 fold | – | – | – | – | M103205H795-MY197/M103202L889-SK1 (antibody, human IgG1, kappa, name in EU numbering, Fc variant of MS1032LO06-SG1; positions in EU numbering) heavy: QVTLKESGPVLVKPTETLTLTCTVSGIDLSHDDISWVRQAPGKGLEWVGIISYAGSTYYASWAKGRLTISKDTSKNQVVLTMTNMDPVDTATYYCARGVPAYSHGGDLWGQGTLVTVSSASTKGPSVFPLAPSSKSTSGGTAALGCLVKDYFPEPVTVSWNSGALTSGVHTFPAVLQSSGLYSLSSVVTVPSSSLGTQTYICNVNHKPSNTKVDKKVEPKSCDKTHTCPPCPAPELLNGPSVFLFPPKPKDTLMISRTPEVTCVVVDVSDEDPEVKFNWYVDGVEVHNAKTKPREEQYNSTYRVVSVLTVLHQDWLNGKEYKCKVSNKALPKPIEKTISKAKGQPREPQVYTLPPSREEMTKNQVSLTCLVKGFYPSDIAVEWESNGQPENNYKTTPMVLDSDGSFFLYSKLTVDKSRWQQGNVFSCSVMHEALHNHYTQKSLSLSP light: DIVMTQSPATLSLSPGERATLSCTSSQSVYHANWLSWFQQKPGQPPKLLIYWASTLAYGVPSRFSGSGSGTDFTLTISSLQPEDAATYYCAGGYGGGRYAFGQGTKVEIKRTVAAPSVFIFPPSDEQLKSGTASVVCLLNNFYPREAKVQWKVDNALQSGNSQESVTEQDSKDSTYSLSSTLTLSKADYEKHKVYACEVTHQGLSSPVTKSFNRGEC
– | – | – | – | 1.5 fold | 0.03 fold | 0.5 fold | 1.5 fold | M103205H795-MY288/M103202L889-SK1 (antibody, human IgG1, kappa, name in EU numbering, substitutions in EU numbering, introduced into M103205H795-SG1) heavy: not shown light: DIVMTQSPATLSLSPGERATLSCTSSQSVYHANWLSWFQQKPGQPPKLLIYWASTLAYGVPSRFSGSGSGTDFTLTISSLQPEDAATYYCAGGYGGGRYAFGQGTKVEIKRTVAAPSVFIFPPSDEQLKSGTASVVCLLNNFYPREAKVQWKVDNALQSGNSQESVTEQDSKDSTYSLSSTLTLSKADYEKHKVYACEVTHQGLSSPVTKSFNRGEC
